# Legend:
# [1] = system: EcDa01 (Escherichia coli)
# AncDa04 = system: T1, AncDa04
# T1 sequence: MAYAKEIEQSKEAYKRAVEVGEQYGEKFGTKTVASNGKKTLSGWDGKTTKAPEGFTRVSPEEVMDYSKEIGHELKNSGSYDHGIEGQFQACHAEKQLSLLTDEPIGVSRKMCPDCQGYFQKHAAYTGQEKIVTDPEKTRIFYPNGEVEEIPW
# MGYPDa26 (unidentified) = system: T2, MGYPDa26 (unidentified)
# T2 sequence: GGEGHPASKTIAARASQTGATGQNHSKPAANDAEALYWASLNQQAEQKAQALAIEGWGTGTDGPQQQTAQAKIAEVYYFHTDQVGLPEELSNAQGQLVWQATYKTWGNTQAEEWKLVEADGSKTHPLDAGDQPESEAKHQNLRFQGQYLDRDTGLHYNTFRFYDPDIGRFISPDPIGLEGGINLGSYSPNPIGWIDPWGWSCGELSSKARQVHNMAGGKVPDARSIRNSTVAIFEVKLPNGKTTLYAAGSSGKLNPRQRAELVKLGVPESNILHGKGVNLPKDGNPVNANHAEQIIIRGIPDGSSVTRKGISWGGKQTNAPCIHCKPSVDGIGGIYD
# [2] = system: CseDa01 (Candidatus Scybalomonas e)
# [3] = system: T3, BcDa02 (Burkholderia cepacia)
# T3 sequence: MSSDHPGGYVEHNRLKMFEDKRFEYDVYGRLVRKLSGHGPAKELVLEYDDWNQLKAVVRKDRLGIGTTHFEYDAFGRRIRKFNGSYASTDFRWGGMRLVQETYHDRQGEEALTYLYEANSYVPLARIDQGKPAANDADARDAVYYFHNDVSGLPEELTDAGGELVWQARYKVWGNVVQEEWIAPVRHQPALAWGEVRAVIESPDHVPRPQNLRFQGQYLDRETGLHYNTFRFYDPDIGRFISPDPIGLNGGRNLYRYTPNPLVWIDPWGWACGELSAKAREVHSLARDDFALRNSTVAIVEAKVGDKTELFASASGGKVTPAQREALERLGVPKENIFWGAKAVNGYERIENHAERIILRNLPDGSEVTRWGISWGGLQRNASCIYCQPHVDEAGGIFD
# CbDa01 (unidentified) = settings: CG 0.760, CH 0.022
# [4] = system: T4, d38_MGYPDa829 (unidentified)
# T4 sequence: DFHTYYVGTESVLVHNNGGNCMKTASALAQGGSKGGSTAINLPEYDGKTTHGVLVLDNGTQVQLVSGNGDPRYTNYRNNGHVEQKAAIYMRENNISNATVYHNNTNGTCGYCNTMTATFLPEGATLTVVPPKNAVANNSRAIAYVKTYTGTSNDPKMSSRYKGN
# MGYPDa23 (unidentified) = system: T5, MGYPDa23 (unidentified)
# T5 sequence: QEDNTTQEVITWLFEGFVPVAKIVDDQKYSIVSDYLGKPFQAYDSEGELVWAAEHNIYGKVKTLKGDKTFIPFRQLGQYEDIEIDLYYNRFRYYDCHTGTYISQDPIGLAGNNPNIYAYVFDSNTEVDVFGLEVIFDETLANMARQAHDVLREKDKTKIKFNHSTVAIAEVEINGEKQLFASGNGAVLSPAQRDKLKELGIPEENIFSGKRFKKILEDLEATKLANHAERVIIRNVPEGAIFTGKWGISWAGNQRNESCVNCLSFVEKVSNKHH
# [5] = system: NsDa01 (Neisseria subflava); settings: 5mC 0.059, 5hmC 0.017
# [6] = system: T6, CrDa01 (Clostridium roseum)
# T6 sequence: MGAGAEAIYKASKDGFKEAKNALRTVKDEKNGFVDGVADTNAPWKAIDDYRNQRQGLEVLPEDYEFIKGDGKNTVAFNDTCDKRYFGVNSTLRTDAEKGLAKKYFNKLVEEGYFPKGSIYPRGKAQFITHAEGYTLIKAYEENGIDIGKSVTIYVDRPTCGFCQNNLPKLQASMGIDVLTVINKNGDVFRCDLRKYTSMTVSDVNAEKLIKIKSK
# MGYPDa829 = system: T7, MGYPDa829
# T7 sequence: T4 sequence
# [7] = system: T8, AvDa02 (Actinomyces viscosus)
# T8 sequence: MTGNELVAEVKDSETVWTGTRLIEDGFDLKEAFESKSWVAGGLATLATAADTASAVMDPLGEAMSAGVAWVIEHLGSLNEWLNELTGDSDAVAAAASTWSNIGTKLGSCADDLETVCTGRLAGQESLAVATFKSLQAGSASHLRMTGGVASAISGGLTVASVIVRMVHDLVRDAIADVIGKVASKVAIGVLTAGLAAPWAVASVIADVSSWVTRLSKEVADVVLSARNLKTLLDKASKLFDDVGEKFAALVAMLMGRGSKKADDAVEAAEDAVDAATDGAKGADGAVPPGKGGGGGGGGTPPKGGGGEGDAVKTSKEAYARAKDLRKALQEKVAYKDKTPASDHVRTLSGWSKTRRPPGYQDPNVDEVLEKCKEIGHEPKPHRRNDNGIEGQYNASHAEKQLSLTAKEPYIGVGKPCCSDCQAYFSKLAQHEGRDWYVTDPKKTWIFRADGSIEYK
# [8] = system: T9, RaDa01 (Ruminococcus sp.)
# T9 sequence: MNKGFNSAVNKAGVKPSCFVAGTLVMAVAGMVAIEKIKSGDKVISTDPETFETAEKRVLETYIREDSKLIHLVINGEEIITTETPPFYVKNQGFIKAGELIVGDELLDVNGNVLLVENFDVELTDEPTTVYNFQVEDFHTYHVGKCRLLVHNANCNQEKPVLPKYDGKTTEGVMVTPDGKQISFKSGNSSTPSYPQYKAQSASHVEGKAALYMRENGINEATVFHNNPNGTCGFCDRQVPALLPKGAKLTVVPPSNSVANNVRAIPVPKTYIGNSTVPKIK
# [9] = system: SaDa02 (Streptomyces sp.)
# [10] = system: AshDa01 (Amycolatopsis sp.); settings: CG 0.699, CH 0.193
substance,measurement,setting,value
unmodified dsDNA (E. coli C2566 genomic),activity (fraction deaminated),[1],0.566
same,activity (fraction deaminated),AncDa04,0.992
same,activity (fraction deaminated),MGYPDa26 (unidentified),0.929
same,activity (fraction deaminated),[2],0.998
same,activity (fraction deaminated),[3],0.772
same,activity (fraction deaminated),CbDa01 (unidentified),0.24
same,activity (fraction deaminated),[4],0.993
same,activity (fraction deaminated),MGYPDa23 (unidentified),0.935
same,activity (fraction deaminated),[5],0.597
same,activity (fraction deaminated),d22_Cd4_PeDa01,0.641
same,activity (fraction deaminated),[6],0.811
same,activity (fraction deaminated),MGYPDa01 (unidentified),0.748
same,activity (fraction deaminated),MGYPDa829,0.956
same,activity (fraction deaminated),[7],0.998
same,activity (fraction deaminated),[8],0.465
same,activity (fraction deaminated),[9],0.607
same,activity (fraction deaminated),[10],0.342
